Laboratory results published in US20070065429A1, “Nogo-receptor antagonists for the treatment of conditions involving amyloid plaques” (Biogen Idec MA Inc., priority 2003, published 2007).
Values belong to the molecule of their own block, whether it stands above or below them.

How the values were obtained:
Aβ peptides = test: Aβ peptide binding to wells coated with purified sNgR-Fc
Experimental: We analyzed whether Aβ (1-28) binding competed for NgR binding with other known ligands for NgR by allowing 250 nM soluble AP-Aβ(1-28) or AP-Nogo (1-33) to bind to wells coated with purified sNgR310-Fc in the presence of various concentrations of competing free Aβ. […] We observed that the Aβ peptides bind to both sNgR310-Fc and sNgR344-Fc. […] However, Aβ(1-28) displaced Aβ-AP binding but not AP-Nogo-66 (1-33) or AP-OMgp binding in competition assays. The Aβ peptide may begin to displace AP-MAG very slightly at high concentrations in our experiments. Thus, the Aβ binding site on NgR appears largely distinct from that for the myelin ligands NogoA, OMgp and MAG. Consistent with this, the presence of Aβ had little effect on myelin or Nogo-66 inhibition of neurite outgrowth.

[1] = test system: APPsw/PSEN-1(DeltaE9) double transgenic mice; test: Intracerebroventricular infusion into APPsw/PSEN-1(DeltaE9) double transgenic mice; assay type: in vivo; conditions: 2.5 mg per mouse over 56 days
Excerpt: To examine the role of the NgR/APP/AB interactions in vivo, sNgR310-Fc (a NgR antagonist; see International Patent Application PCT/US03/25004) was infused into APPsw/PSEN-1(DeltaE9) double transgenic mice (from Jackson Laboratories). The sNgR310-Fc protein contains the entire LRR ligand-binding of the NgR fused to the Fc portion of IgG. To administer sNgR310-Fc protein, 5-month-old mice were anesthetized with isoflurane/oxygen and a burr hole was drilled in the skull. A cannula (ALZET brain infusion kit II, Alza Scientific Products, Palo Alto, Calif.) was introduced into the right lateral ventricle at stereotaxic coordinates 0.6 mm posterior and 1.2 mm lateral to bregma and 4.0 mm deep to the pial surface. The cannula was held in place with cyanoacrylate and the catheter was attached to a subcutaneous osmotic minipump (Alzet 2ML4). The pump delivered 2.5 μl/hr for 28 days of a 1.2 mg/ml solution of sNgR310-Fc or rat IgG in PBS (control mice received rat IgG since both the NgR and the Pc moiety were of rat origin). Pumps were replaced after 28 days and connected to the same cannula. The total dose of protein infused was 2.5 mg per mouse over 56 days. At the end of this period, mice were sacrificed and brain AB levels were measured using an ELISA kit from Biosource International according to the manufacturer's instructions. Aβ deposition into amyloid plaques was assessed by anti-Aβ immunohistochemistry as follows. Aβ plaques in sagittal sections of 4% paraformaldehyde fixed brain were detected immunohistologically with anti-Aβ(1-17) 6E10 antibody after 0.1 M formic acid treatment for antigen recovery. Plaque area was quantitated using NIH Image as a percentage of cerebral cortical area for 3 sections from each animal.

NgR = molecular target: T1, NgR (Homo sapiens, UniProt Q9BZR6); test: AP-Aβ(1-28) fusion protein binding to NgR-expressing COS cells; conditions: not to vector-transfected COS cells
T1 construct: expressed in transfected cells; host or cells: COS cells
T1 sequence (Q9BZR6 27-473): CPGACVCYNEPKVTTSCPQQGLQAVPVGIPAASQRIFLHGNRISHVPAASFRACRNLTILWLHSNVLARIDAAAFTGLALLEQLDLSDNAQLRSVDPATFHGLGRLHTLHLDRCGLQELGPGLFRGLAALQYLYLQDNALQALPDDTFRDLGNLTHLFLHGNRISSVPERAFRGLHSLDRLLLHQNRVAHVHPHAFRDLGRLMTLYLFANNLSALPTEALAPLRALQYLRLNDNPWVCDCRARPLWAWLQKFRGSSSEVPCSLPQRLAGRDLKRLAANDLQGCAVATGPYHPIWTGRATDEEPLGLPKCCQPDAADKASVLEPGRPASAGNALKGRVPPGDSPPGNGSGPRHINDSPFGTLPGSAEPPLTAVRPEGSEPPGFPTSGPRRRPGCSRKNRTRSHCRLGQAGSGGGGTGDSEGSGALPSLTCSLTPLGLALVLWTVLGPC
Excerpt: We then investigated whether the Aβ region of APP is involved in its interaction with NgR—including whether the fibrillogenic Aβ42-3 peptide binds NgR. We created two fusion protein constructs containing alkaline phosphatase (AP) and the hydrophilic region of Aβ (amino acids 1-28) by fusing the coding sequence in frame with the signal sequence-6×His-placental alkaline phosphatase (AP) sequence of the vector pAP-6 (Nakamura et al., Neuron 2: 1093-1100, 1988). The AP-Aβ and Aβ-AP proteins both bound to NgR-expressing COS cells but not to vector-transfected COS cells. This binding was saturable with an apparent Kd of 60 nM. The interaction also was detected using purified Biotin-Aβ(1-40) in an ELISA-type assay with immobilized NgR.

binding of Aβ peptides (Aβ peptides): bind
B1: sNgR310-Fc: contains the entire LRR ligand-binding of the NgR fused to the Fc portion of IgG; NgR and Fc of rat origin (protein)
chain: CPGACVCYNEPKVTTSRPQQGLQAVPAGIPASSQRIFLHGNRISYVPAASFQSCRNLTILWLHSNALAGIDAAAFTGLTLLEQLDLSDNAQLRVVDPTTFRGLGHLHTLHLDRCGLQELGPGLFRGLAALQYLYLQDNNLQALPDNTFRDLGNLTHLFLHGNRIPSVPEHAFRGLHSLDRLLLHQNHVARVHPHAFRDLGRLMTLYLFANNLSMLPAEVLVPLRSLQYLRLNDNPWVCDCRARPLWAWLQKFRGSSSGVPSNLPQRLAGRDLKRLATSDLEGCA
modifications: left off: a dimerising Fc or GST
notes: NgR and Fc of rat origin
deposition of immunoreactive Aβ into plaque ([1]; right lateral ventricle, vs rat IgG, anti-Aβ immunohistochemistry): significantly reduced
decrease of total level of Aβ(1-40) in the brain ([1]; right lateral ventricle, ELISA): 50%
decrease of total level of Aβ(1-42) in the brain ([1]; right lateral ventricle, ELISA): 50%
sAPPα levels in the brains ([1]; immunoprecipitation and immunoblot): decreased

binding to NgR-expressing COS cells (NgR): bound
B2: AP-Aβ: fusion protein of alkaline phosphatase (AP) and the hydrophilic region of Aβ (amino acids 1-28) (protein)
chain: HHHHHHIIPVEEENPDFWNREAAEALGAAKKLQPAQTAAKNLIIFLGDGMGVSTVTAARILKGQKKDKLGPEIPLAMDRFPYVALSKTYNVDKHVPDSGATATAYLCGVKGNFQTIGLSAAARFNQCNTTRGNEVISVMNRAKKAGKSVGVVTTTRVQHASPAGTYAHTVNRNWYSDADVPASARQEGCQDIATQLISNMDIDVILGGGRKYMFRMGTPDPEYPDDYSQGGTRLDGKNLVQEWLAKRQGARYVWNRTELMQASLDPSVTHLMGLFEPGDMKYEIHRDSTLDPSLMEMTEAALRLLSRNPRGFFLFVEGGRIDHGHHESRAYRALTETIMFDDAIERAGQLTSEEDTLSLVTADHSHVFSFGGYPLRGSSIFGLAPGKARDRKAYTVLLYGNGPGYVLKDGARPDVTESESGSPEYRQQSAVPLDEETHAGEDVAVFARGPQAHLVHGVQEQTFIAHVMAFAACLEPYTACDLAPPAGTTDAAHPGDAEFRHDSGYEVHHQKLVFFAEDVGSNK

binding of Aβ peptides (Aβ peptides): bind
B3: sNgR344-Fc: rat soluble NgR 344 Fc fusion (protein)
chain: CPGACVCYNEPKVTTSRPQQGLQAVPAGIPASSQRIFLHGNRISYVPAASFQSCRNLTILWLHSNALAGIDAAAFTGLTLLEQLDLSDNAQLRVVDPTTFRGLGHLHTLHLDRCGLQELGPGLFRGLAALQYLYLQDNNLQALPDNTFRDLGNLTHLFLHGNRIPSVPEHAFRGLHSLDRLLLHQNHVARVHPHAFRDLGRLMTLYLFANNLSMLPAEVLVPLRSLQYLRLNDNPWVCDCRARPLWAWLQKFRGSSSGVPSNLPQRLAGRDLKRLATSDLEGCAVASGPFRPFQTNQLTDEELLGLPKCCQPDAADKA
modifications: left off: a dimerising Fc or GST
notes: rat soluble NgR 344 Fc fusion
